{"source": "patent US20230331821A1", "about": "(VIR BIOTECHNOLOGY, published 2023)", "binders": {"B1": {"name": "S315 recombinant IgG1 (antibody, V domains shown)", "VH": "EVQLVESGGGLVQPGGSLRLSCAASGFTFSNYWMTWVRQAPGKGLEWVANIKQDGSEKYYVDSVKGRFTISRDNAKNSLYLQMNSLRAEDTAVYYCARDLWWNDQAHYYGMDVWGQGTTVTVSS", "VL": "SYELTQPPSVSVSPGQTARITCSGDAFPNQYAYWYQQKPGQAPVMLIYKDSERPSGIPERFFGSSSGTTVTLTIRGVQAEDEADYYCQSADSSGTVFGGGTKLTVL"}, "B2": {"name": "S306-rIgG1-LS (antibody, V domains shown)", "VH": "QVQLVQSGAEVKKPGASVKVSCKASTYTFTSFGISWVRQAPGQGLEWMGWITTYSGDTNYAQKFQGRVTMTTDTSTNTAYMELRSLRSDDTAVYYCASDYFDSSGYYHSFDYWGQGTLVTVSS", "VL": "EIVLTQSPDTLSLSPGERATLSCRASQSVSSYLAWYQQRPGQAPRLLIYDASKRATGIPARFSGSGSGTDFTLTISSLEPEDFAVYYCQQRSNWPPGCSFGQGTKVEIK"}, "B3": {"name": "S310-rIgG1-LS (antibody, V domains shown)", "VH": "QVQLVQSGAELKKPGSSVKVSCKASGGTFNSYSFNWVRQAPGQGLEWLGGIIPVLGTSNYAQKFQGRVAVTADEFTTTAYMELSSLRSEDTAVYYCATRTYDSSGYRPYYYGLDVWGQGTPVTVSS", "VL": "QSALTQPASVSGSPGQSITISCTGTSSDVGSYNLVSWYQQRPGKAPELMIYEVTKRPSGLSNRFSGSKSGNTASLTISGLQAEDEADYYCCSYAGSDTVIFGGGTKVTVL"}, "B4": {"name": "S304 rIgG1 (antibody, V domains shown)", "VH": "EVQLVESGGGLVQPGGSLRLSCAASGFTFSSYDMHWVRQTTGKGLEWVSTIGTAGDTYYPDSVKGRFTISREDAKNSLYLQMNSLRAGDTAVYYCARGDSSGYYYYFDYWGQGTLLTVSS", "VL": "DIQMTQSPSSLSAAVGDRVTITCRASQSIGSYLNWYQQKPGKAPKLLIYAASSLQSGVPSRFSGSGSGTDFTLTISSLQPEDFAIYYCQQSYVSPTYTFGPGTKVDIK"}}, "key": {"[1]": {"target": "T1, SARS-CoV-2 Spike (S) protein, strain BetaCoV/Wuhan-Hu-1/2019, full length (SARS-CoV-2 Wuhan-Hu-1, UniProt P0DTC2 14-1273)"}, "[2]": {"target": "T2, His-tagged RBD of SARS-CoV-2 (SARS-CoV-2 BetaCoV/Wuhan-Hu-1/2019, UniProt P0DTC2 331-550)"}, "[3]": {"target": "T3, His-tagged RBD of SARS-CoV-1 (SARS-CoV-1, UniProt P59594 306-527)"}, "[4]": {"target": "T1, SARS-CoV-2 Spike (S) protein, strain …", "assay": "cell-based or functional assay"}, "[5]": {"target": "T1, SARS-CoV-2 Spike (S) protein, strain …", "assay": "flow cytometry, ExpiCHO cells expressing SARS-CoV-2 S; % positive cells"}, "[6]": {"target": "SARS-CoV-1 Spike (S) protein, strain SARS, on ExpiCHO cells (SARS-CoV (SARS-CoV-1), strain SARS, UniProt P59594 14-1255)", "assay": "flow cytometry, ExpiCHO cells expressing SARS-CoV-1 S; % positive cells"}, "[7]": {"target": "T4, SARS-CoV-1 RBD (Sino Biological) (SARS-CoV-1, UniProt P59594 306-527)", "assay": "ELISA, antigen coated on the plate, OD 405 nm"}, "[8]": {"target": "T4, SARS-CoV-1 RBD (Sino Biological)", "assay": "ELISA, antigen coated on the plate, OD 405 nm", "remark": "listed apart in the source"}, "[9]": {"target": "T2, His-tagged RBD of SARS-CoV-2", "remark": "listed apart in the source"}, "[10]": {"target": "T3, His-tagged RBD of SARS-CoV-1", "remark": "listed apart in the source"}, "[11]": {"target": "T1, SARS-CoV-2 Spike (S) protein, strain …", "assay": "cell-based or functional assay", "remark": "listed apart in the source"}, "[12]": {"target": "SARS-CoV-2 RBD (produced in house in Expi-CHO cells; residues 331-550 of spike) (SARS-CoV-2 BetaCoV/Wuhan-Hu-1/2019, UniProt P0DTC2 331-550)", "assay": "BLI (Octet), antibody on protein A sensors, RBD in solution, global fit"}, "[13]": {"target": "T4, SARS-CoV-1 RBD (Sino Biological)", "assay": "BLI (Octet), antibody on protein A sensors, RBD in solution, global fit"}}, "note": "Where two headings read alike, the source gives them in different places.", "data": [{"binder": "B1", "values": [{"measurement": "EC50", "setting": "[1]", "value": 0.343, "unit": "µg/mL"}, {"measurement": "Kd", "setting": "[2]", "value": 0.811, "unit": "nM"}, {"measurement": "Kd", "setting": "[3]", "value": "< 0.001", "unit": "nM"}, {"measurement": "IC50, neutralization of SARS-CoV-2pp on DBT-ACE2 cells", "setting": "[4]", "value": 25.1, "unit": "µg/mL"}, {"measurement": "EC50 (read off the curve)", "setting": "[5]", "value": "~0.3", "unit": "µg/mL"}, {"measurement": "EC50 (read off the curve)", "setting": "[6]", "value": "~0.007", "unit": "µg/mL"}]}, {"binder": "B2", "values": [{"measurement": "binding result", "setting": "[7]", "value": "no binding (tested: 5 µg/ml)"}]}, {"binder": "B3", "values": [{"measurement": "binding result", "setting": "[8]", "value": "no binding (tested: 5 µg/ml)"}]}, {"binder": "B4", "values": [{"measurement": "EC50", "setting": "[1]", "value": 0.142, "unit": "µg/mL"}, {"measurement": "Kd", "setting": "[9]", "value": 4.58, "unit": "nM"}, {"measurement": "Kd", "setting": "[10]", "value": 0.869, "unit": "nM"}, {"measurement": "IC50, neutralization of SARS-CoV-2pp on DBT-ACE2 cells", "setting": "[11]", "value": "~16.9", "unit": "µg/mL"}, {"measurement": "Kd", "setting": "[12]", "value": 4.58, "unit": "nM"}, {"measurement": "Kd", "setting": "[13]", "value": 0.869, "unit": "nM"}, {"measurement": "EC50 (read off the curve)", "setting": "[5]", "value": "~0.1", "unit": "µg/mL"}, {"measurement": "EC50 (read off the curve)", "setting": "[6]", "value": "~0.01", "unit": "µg/mL"}]}]}
